From PMC6212790, “How bacterial xenogeneic silencer rok distinguishes foreign from self DNA in its resident genome” (Nucleic Acids Research, 2018)

How the values were obtained:
[1] = molecular target: the molecule itself; assay: SEC; gel filtration on a GE HiLoad 16/600 Superdex 75 preparation grade column; elution volumes compared with cytochrome C (12.4 kD) and the void volume
Rok-C97-191 = molecular target: T1, Rok-C97-191 (Bacillus subtilis subsp. subtilis str. …, UniProt O34857 97-191); assay: NMR titration; ITC: sodium phosphate buffer, 200 mM NaCl, pH 6, 277 K, 50 uM protein in cell, 750 uM Seq1 DNA; NMR samples: 50 mM sodium phosphate, 50 mM NaCl, pH 6.0; settings: protein: recombinant; tags: C-terminal His6; blunt, self-complementary 12 bp
T1 sequence: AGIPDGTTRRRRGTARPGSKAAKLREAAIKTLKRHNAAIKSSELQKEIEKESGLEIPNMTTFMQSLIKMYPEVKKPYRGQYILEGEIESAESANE

Rok-C102-185 [2] = molecular target: T2, Rok-C102-185 (Bacillus subtilis subsp. subtilis str. …, UniProt O34857 102-185); assay: NMR HSQC; ITC: sodium phosphate buffer, 200 mM NaCl, pH 6, 277 K, 50 uM protein in cell, 750 uM Seq1 DNA; NMR samples: 50 mM sodium phosphate, 50 mM NaCl, pH 6.0; settings: protein: recombinant, tags: C-terminal His6, blunt
T2 sequence: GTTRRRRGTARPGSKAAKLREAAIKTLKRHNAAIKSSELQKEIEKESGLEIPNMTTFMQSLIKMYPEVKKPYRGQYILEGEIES

Rok-C114-185 R174A [3] = molecular target: T3, Rok-C114-185 R174A (Bacillus subtilis subsp. subtilis str. …, UniProt O34857 114-185, R174A); assay: ITC; ITC: sodium phosphate buffer, 200 mM NaCl, pH 6, 277 K, 50 uM protein in cell titrated with 750 uM Seq1 DNA; PBM: buffer not stated; settings: protein: recombinant; tags: C-terminal His6; blunt, self-complementary 18 bp
T3 sequence: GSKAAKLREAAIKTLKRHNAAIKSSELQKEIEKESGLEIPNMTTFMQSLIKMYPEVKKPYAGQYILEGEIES

Rok-C114-185 T156A [4] = molecular target: T4, Rok-C114-185 T156A (Bacillus subtilis subsp. subtilis str. …, UniProt O34857 114-185, T156A); assay: as above; settings: protein: recombinant; tags: C-terminal His6; blunt, self-complementary 18 bp
T4 sequence: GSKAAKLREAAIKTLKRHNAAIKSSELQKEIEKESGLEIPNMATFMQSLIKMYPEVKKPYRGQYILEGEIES

Rok-C114-185 T157A = molecular target: T5, Rok-C114-185 T157A (Bacillus subtilis subsp. subtilis str. …, UniProt O34857 114-185, T157A); assay: as above; settings: protein: recombinant; tags: C-terminal His6; blunt, self-complementary 18 bp
T5 sequence: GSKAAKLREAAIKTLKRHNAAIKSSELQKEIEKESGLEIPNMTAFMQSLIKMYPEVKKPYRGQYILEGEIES

Rok-C114-185 K136A = molecular target: T6, Rok-C114-185 K136A (Bacillus subtilis subsp. subtilis str. …, UniProt O34857 114-185, K136A); assay: as above; settings: protein: recombinant; tags: C-terminal His6; blunt, self-complementary 18 bp
T6 sequence: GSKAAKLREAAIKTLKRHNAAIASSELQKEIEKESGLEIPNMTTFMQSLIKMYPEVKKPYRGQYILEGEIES

Rok-C114-185 K171A = molecular target: T7, Rok-C114-185 K171A (Bacillus subtilis subsp. subtilis str. …, UniProt O34857 114-185, K171A); assay: as above; settings: protein: recombinant; tags: C-terminal His6; blunt, self-complementary 18 bp
T7 sequence: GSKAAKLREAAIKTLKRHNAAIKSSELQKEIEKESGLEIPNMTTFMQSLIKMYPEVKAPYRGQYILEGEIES

Rok-C114-185 K164A = molecular target: T8, Rok-C114-185 K164A (Bacillus subtilis subsp. subtilis str. …, UniProt O34857 114-185, K164A); assay: as above; settings: protein: recombinant; tags: C-terminal His6; blunt, self-complementary 18 bp
T8 sequence: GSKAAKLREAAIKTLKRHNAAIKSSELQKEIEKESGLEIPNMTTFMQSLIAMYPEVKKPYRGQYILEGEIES

Rok-C114-185 = molecular target: T9, Rok-C114-185 (Bacillus subtilis subsp. subtilis str. …, UniProt O34857 114-185); assay: as above; settings: protein: recombinant; tags: C-terminal His6; blunt, self-complementary 18 bp
T9 sequence: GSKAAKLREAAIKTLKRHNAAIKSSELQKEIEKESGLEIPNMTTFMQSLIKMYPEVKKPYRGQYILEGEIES

Rok-C114-185 K116A = molecular target: T10, Rok-C114-185 K116A (Bacillus subtilis subsp. subtilis str. …, UniProt O34857 114-185, K116A); assay: as above; settings: protein: recombinant; tags: C-terminal His6; blunt, self-complementary 18 bp
T10 sequence: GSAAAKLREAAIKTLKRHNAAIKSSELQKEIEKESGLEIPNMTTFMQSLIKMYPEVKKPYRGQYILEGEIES

Rok-C102-185 [5] = molecular target: T2, Rok-C102-185; assay: as above; settings: protein: recombinant; tags: C-terminal His6; blunt, self-complementary 18 bp
Rok-C114-185 R174A [6] = molecular target: T3, Rok-C114-185 R174A; assay: ITC; ITC: sodium phosphate buffer, 200 mM NaCl, pH 6, 277 K, 50 uM protein in cell, 750 uM Seq1 DNA; NMR samples: 50 mM sodium phosphate, 50 mM NaCl, pH 6.0; settings: protein: recombinant; tags: C-terminal His6; blunt, self-complementary 18 bp
Rok-C114-185 T156A [7] = molecular target: T4, Rok-C114-185 T156A; assay: as above; settings: protein: recombinant; tags: C-terminal His6; blunt, self-complementary 18 bp

B1: Rok (full-length Rok protein, Bacillus subtilis subsp. subtilis str. 168) (natural protein, B. subtilis subsp. subtilis str. 168, UniProt O34857 1-191, looked up)
chain: MFNEREALRLRLEQLNEAEVKVIREYQIERDKIYAKLRELDRNGSPSEIKKDFRSEKKPDSLPVLAELAAQEIRSYQPQSQQQSVQPQLQSISSLPAGIPDGTTRRRRGTARPGSKAAKLREAAIKTLKRHNAAIKSSELQKEIEKESGLEIPNMTTFMQSLIKMYPEVKKPYRGQYILEGEIESAESANE
notes: Rok, xenogeneic silencer of Bacillus subtilis subsp. subtilis str; cloned into pET-21a(+) NdeI/XhoI; size of the higher order oligomer not determined; source: E. coli Rosetta (DE3), purified (Ni-NTA, size exclusion chromatography)
binding result [1]: binds

B2: 3AT (dsDNA)
DNA 1: CGCATATATGCG
DNA 2: CGCATATATGCG
binding result (Rok-C97-191): binds
binding result (Rok-C102-185 [2]; self-complementary 12 bp): binds

B3: Seq1 (dsDNA)
DNA 1: CTAATAACTAGTTATTAG
DNA 2: CTAATAACTAGTTATTAG
Kd (Rok-C114-185 R174A [3]): 89 ± 42 µM
Kd (Rok-C114-185 T156A [4]): 42.9 ± 7.1 µM
Kd (Rok-C114-185 T157A): 15 ± 1.9 µM
Kd (Rok-C114-185 K136A): 39.4 ± 6.4 µM
Kd (Rok-C114-185 K171A): 110 ± 35 µM
Kd (Rok-C114-185 K164A): 30.9 ± 2.9 µM
Kd (Rok-C114-185): 19.7 ± 2.7 µM
Kd (Rok-C114-185 K116A): 42.9 ± 8.1 µM
Kd (Rok-C102-185 [5]): 7.9 ± 1.3 µM
Kd (Rok-C114-185 R174A [6]): 89 ± 42 µM
Kd (Rok-C114-185 T156A [7]): 42.9 ± 7.1 µM

B4: Rok-N^1-95 (N-terminal domain of Rok, residues 1-95) (domain or fragment, B. subtilis subsp. subtilis str. 168, UniProt O34857 1-95, looked up)
chain: MFNEREALRLRLEQLNEAEVKVIREYQIERDKIYAKLRELDRNGSPSEIKKDFRSEKKPDSLPVLAELAAQEIRSYQPQSQQQSVQPQLQSISSL
notes: Rok of Bacillus subtilis subsp. subtilis str; cloned into pET-21a(+) NdeI/XhoI; source: E. coli Rosetta (DE3), purified (Ni-NTA, size exclusion chromatography)
binding result [1]: binds

B5: 8AT (dsDNA)
DNA 1: CATATATATATATATATG
DNA 2: CATATATATATATATATG
binding result (Rok-C102-185 [2]; self-complementary 18 bp): binds
